{"source": "paper doi:10.1101/473132", "about": "(bioRxiv, 2018)", "binders": {"B1": {"name": "Swi6 (S. pombe HP1 protein) (natural protein)", "chain": "MKKGGVRSYRRSSTSKRSVIDDDSEPELPSMTKEAIASHKADSGSSDNEVESDHESKSSSKKLKENAKEEEGGEEEEEDEYVVEKVLKHRMARKGGGYEYLLKWEGYDDPSDNTWSSEADCSGCKQLIEAYWNEHGGRPEPSKRKRTARPKKPEAKEPSPKSRKTDEDKHDKDSNEKIEDVNEKTIKFADKSQEEFNENGPPSGQPNGHIESDNESKSPSQKESNESEDIQIAETPSNVTPKKKPSPEVPKLPDNRELTVKQVENYDSWEDLVSSIDTIERKDDGTLEIYLTWKNGAISHHPSTITNKKCPQKMLQFYESHLTFRENE"}}, "key": {"[1]": {"target": "histone H2B, within the H3Kc9me3 mononucleosome (X. laevis, UniProt P02281 2-126)", "assay": "cross-linking"}, "[2]": {"target": "histone H4, within the H3Kc9me3 mononucleosome (X. laevis, UniProt P62799 2-103)", "assay": "cross-linking"}}, "data": [{"binder": "B1", "values": [{"measurement": "binding result", "setting": "[1]", "result": "binds"}, {"measurement": "binding result", "setting": "[2]", "result": "binds"}]}]}
